Values of other authors in article PMC9826382.

Molecular target: HOP TPR2A (Homo sapiens) (UniProt P31948)
Assay: SPR

Sequence of UniProt P31948 (P31948 223-352): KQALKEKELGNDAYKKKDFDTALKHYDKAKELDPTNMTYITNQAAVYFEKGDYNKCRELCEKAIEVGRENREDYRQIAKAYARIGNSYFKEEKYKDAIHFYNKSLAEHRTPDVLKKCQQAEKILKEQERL

For HSP90 C-terminal peptide, the Kd is listed as 11 µM.
